Source: article PMC3631186

What was measured:
[1] = biological target: C-terminal domain (CTD) of BMJ4 p24 (HIV-1 strain BMJ4 (subtype C)); test: non-reducing SDS-PAGE; C-terminal domain of BMJ4 p24 in non-reducing condition
[2] = biological target: HIV-1 p24 capsid protein from the BMJ4 strain (recombinant, full-length) (HIV-1 strain BMJ4 (subtype C)); test: AUC; sedimentation velocity, 0.9 mg/ml in phosphate-buffered saline pH 7.4, 20°C, 45,000 rpm; c(s) scaled to c(M)
[3] = biological target: HIV-1 p24 capsid protein from the BMJ4 strain (recombinant, full-length) (HIV-1 strain BMJ4 (subtype C)); test: crystal structure
[4] = biological target: HIV-1 p24 capsid protein from the BMJ4 strain (recombinant, full-length) (HIV-1 strain BMJ4 (subtype C)); test: SEC; analytic gel filtration, G5000PWxl column in phosphate-buffered saline pH 7.4, 0.5 ml/min, Agilent1200 HPLC
[5] = biological target: HIV-1 p24 capsid protein from the BMJ4 strain (recombinant, full-length) (HIV-1 strain BMJ4 (subtype C)); test: non-reducing SDS-PAGE; recombinant p24 proteins; loading buffer with 0.1% SDS, no BME, sample not boiled; called native gel in the text
[6] = biological target: p24 of HIV-1 MJ4 virus (from the infectious clone) (HIV-1 strain BMJ4 (subtype C)); test: non-reducing SDS-PAGE

**Q.** With “C-terminal domain (CTD) of BMJ4 p24 (domain or fragment)” as the substance, how does the stoichiometry N [1] read?
**A.** 2

**Q.** Which results are given for “HIV-1 p24 capsid protein from the BMJ4 strain (recombinant, full-length) (natural protein)”?
**A.** stoichiometry N [2]: 2; stoichiometry N [3]: 2; stoichiometry N [4]: 2; stoichiometry N [5]: 2

**Q.** Which stoichiometry N [6] does the source give for “p24 of HIV-1 MJ4 virus (from the infectious clone) (natural protein)” here?
**A.** 2
